Measured values as given in US20250270566A1, “DUAL-SPECIFICITY RNA ATPAMERS FOR REGULATING O-GLCNACYLATION” (University of Georgia Research Foundation, Inc., published 2025).
Values belong to the binder of their own block, whether it stands above or below them.

How the values were obtained:
β-catenin = β-catenin (UniProt P35222 P35222:1-781); experiment: SPR; intracellular buffer (20 mM HEPES, 110 mM KCl, 10 mM NaCl, 0.4 mM MgCl2, 5 mM KH2PO4, pH 7.2), 25 C; conditions: tags: His tag (Ni-NTA purified, pET28a-β-catenin, E. coli)
Description: Total PLA puncta was counted and normalized to the number of nuclei in each view. Student's t-test was performed. N=8. […] Nucleus and cytoplasm of cells stably expressing 3JB8F+12 was isolated, and RNA in each fraction was quantified by RT-qPCR. RNA abundances were normalized to that of 3JB8F+12 in whole cell lysate (purple bar in upper panel). NEAT1 is a nuclear RNA control, and GAPDH is a cytoplasmic RNA control. Cyt.—Cytoplasm. Nuc.—Nucleus. W.C.—Whole Cell. N=4. T1·bc339—Individual T1 and bc339 aptamers (control). NL8F50/70/100—DS aptamers (T1-linker-bc339) with flexible linkers of 50/70/100 nt. 3JB8F—DS aptamers (T1-linker-bc339) with folded linkers. +4/+12, serial additions (bp) into the folded linker. Quantitated data are normalized to the control group (T1·bc339). Aptamers were expressed from plasmids, and One-way ANOVA test was performed unless indicated. Data are represented as mean±SD. ns, p≥0.05; *, p<0.05; **, p<0.01; ***, p<0.001; ****, p<0.0001.
(§1) For SPR, Multi Cycle Kinetics was performed according to (Chang, A. L., et al. Methods Enzymol 2014 549:451-466) on a Biacore T100 (GE Healthcare/Cytiva) instrument at 25° C. […] Data was analyzed using the Biacore Evaluation Software (GE Healthcare/Cytiva), where the overlaid sensorgrams were fitted into a 1:1 binding model.

[1] = biological target: T1, ncOGT full-length (OGT-FL, nucleocytoplasmic O-GlcNAc transferase) (UniProt O15294 O15294:1-1046); experiment: SPR; ABB (20 mM Tris-HCl, 150 mM NaCl, 5 mM MgCl2, 0.05% Tween-20, pH 7.5), 25 C, 1:1 model; conditions: tags: His tag (Ni-NTA purified, pET24a-ncOGT-FL, E. coli)
T1 sequence: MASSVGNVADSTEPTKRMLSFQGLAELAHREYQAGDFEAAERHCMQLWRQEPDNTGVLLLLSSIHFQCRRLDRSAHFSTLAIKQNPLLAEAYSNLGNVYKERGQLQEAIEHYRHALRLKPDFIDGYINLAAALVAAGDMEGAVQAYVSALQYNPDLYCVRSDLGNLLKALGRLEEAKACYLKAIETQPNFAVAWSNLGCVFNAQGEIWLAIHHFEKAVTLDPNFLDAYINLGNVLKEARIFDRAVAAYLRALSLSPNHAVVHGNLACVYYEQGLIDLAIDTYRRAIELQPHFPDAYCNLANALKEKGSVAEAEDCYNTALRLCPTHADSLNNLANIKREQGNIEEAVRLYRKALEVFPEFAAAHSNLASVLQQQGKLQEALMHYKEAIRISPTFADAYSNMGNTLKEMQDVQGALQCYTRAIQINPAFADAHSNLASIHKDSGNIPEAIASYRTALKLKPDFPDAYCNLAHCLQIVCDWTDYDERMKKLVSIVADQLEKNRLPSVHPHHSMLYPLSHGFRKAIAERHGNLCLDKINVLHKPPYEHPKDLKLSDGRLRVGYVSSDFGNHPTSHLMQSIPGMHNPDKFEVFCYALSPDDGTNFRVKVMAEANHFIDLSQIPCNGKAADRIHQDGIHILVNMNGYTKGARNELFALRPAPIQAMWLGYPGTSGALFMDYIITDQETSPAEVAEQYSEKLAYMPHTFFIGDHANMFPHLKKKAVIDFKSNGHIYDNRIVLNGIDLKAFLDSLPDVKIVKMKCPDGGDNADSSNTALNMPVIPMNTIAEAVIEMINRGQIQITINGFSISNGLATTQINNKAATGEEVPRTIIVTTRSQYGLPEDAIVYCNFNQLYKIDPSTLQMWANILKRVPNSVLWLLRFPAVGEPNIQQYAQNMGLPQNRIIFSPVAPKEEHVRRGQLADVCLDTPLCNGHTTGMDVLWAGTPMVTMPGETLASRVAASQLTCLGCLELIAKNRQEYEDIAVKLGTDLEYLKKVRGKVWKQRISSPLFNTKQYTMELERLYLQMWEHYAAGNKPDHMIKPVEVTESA
Description: T1 was included in the indicated reactions (orange) from 2 μM to 7.8 nM in 2× serial dilution. Data were normalized to the positive control reaction (red). One-way ANOVA test was performed. […] OGT was immunoprecipitated from lysate of T1-expressing cells, using buffers with Mg²⁺ (left) or without Mg²⁺ (right). Then the OGT-bound T1 was quantified by RT-qPCR. Data were normalized to the IgG groups. One-way ANOVA test was performed. RT—Reverse Transcriptase. N=3. […] N=3. […] Cells stably expressing T1 were treated with ActD for the indicated periods. Abundance of T1 was quantified by RT-qPCR (left) and normalized to that of 18S rRNA (right) and initial timepoint (T=0). Data were fitted to a one-phase decay model (curve). N=3. Data are represented as mean±SD. ns, p≥0.05; ****, p<0.0001.
as §1, with “C. In assay preparation, an amine-modified T24 DNA linker (NH2-T24) was immobilized to approximately 100 RU in both reference and test flow cells on a sensorchip PEG (GE Healthcare/Cytiva 29239810), using the Amine Coupling Kit (GE Healthcare/Cytiva BR100050).” for “C.”

[2] = biological target: T1, ncOGT full-length (OGT-FL, …); experiment: FP filter; radiolabeled dot blot (nitrocellulose filter), ABB with 5 mM MgCl2, 37 C, yeast tRNA and BSA competitors; conditions: tags: His tag (Ni-NTA purified, pET24a-ncOGT-FL, E. coli); label: 5'-32P (dot blot)
Description: Radiolabeled RNA was diluted in ABB, denatured at 65° C. for 5 min and re-folded at room temperature for 5 min. Then 100 nM of RNA was incubated with multiple concentrations (see Figure legends) of purified ncOGT at 37° C. for 30 min. The volume of each assay was 50 μL. 1 μM yeast tRNA (Invitrogen AM7119) and 50 μg/mL Bovine Serum Albumin (BSA, NEB B9001S) were included as non-specific competitors. After incubation, the reactions were filtered sequentially through a nitrocellulose membrane (Amersham 10600042) and a Nylon membrane (Invitrogen AM10102), on a Bio-Dot Microfiltration Apparatus (Bio-Rad 170-6545). Membranes were washed with 100 μL ABB to remove unbound RNA. Washed membranes were air-dried and exposed to a film (Amersham 28906836) for 2 hr. The film was developed and scanned, and the image was analyzed with Fiji (Schindelin, J., et al. Nat Methods 2012 9:676-682). Quantified data was fitted into a Michaelis-Menten model using GraphPad Prism.

KAT2A (GCN5) = biological target: T2, KAT2A (GCN5) (UniProt Q92830 2-837); experiment: PLA with antibodies to β-catenin and KAT2A, confocal images of HEK293T cells, -Wnt, T1 • bc339 or 3JB8F+12
T2 construct: Endogenous protein in HEK293T cells; also called KAT2A/GCN5L2
Description: FIGS. 12A to 12P show O-GlcNAc regulates β-catenin's interactions with KAT2A. FIGS. 12A to 12H contain confocal images of Proximity Ligation Assay (PLA) on HEK293T cells. Cells were transfected with plasmids encoding the control aptamers (T1·bc339) or a DS aptamer (3JB8F+12 or 3JB8R+12) and stimulated with regular (−Wnt) or Wnt3A-conditioned (+Wnt) medium. PLA was performed with antibodies targeting […] and KAT2A or H3K9ac. In FIGS. 12C and 12D, cells were treated with 50 μM Ac5S for 20 hr. FIGS. 12I to 12P show quantification of FIGS. 12A to 12H. PLA puncta in nucleus were counted and normalized to the number of nuclei in each view. Student's t-test was performed. Data are represented as mean±SD. ns, p≥0.05; ***, p<0.001; ****, p<0.0001. N=10. T1·bc339—Individual T1 and bc339 aptamers (control). 3JB8F+12/R+12—DS aptamers (T1-linker-bc339) with folded linkers.

EP300 = biological target: T3, EP300 (UniProt Q09472 2-2414); experiment: PLA with antibodies to β-catenin and EP300, confocal images of HEK293T cells, -Wnt, T1 • bc339 or 3JB8F+12
T3 construct: Endogenous protein in HEK293T cells
Description: FIGS. 13A to 13P show O-GlcNAc regulates β-catenin's interactions with other epigenetic modifiers and β-TrCP. FIGS. 13A to 13F contain confocal images of PLA on HEK293T cells. Cells were transfected with plasmids encoding the control aptamers (T1·bc339) or a DS aptamer (3JB8F+12), and stimulated with regular (−Wnt) or Wnt3A-conditioned (+Wnt) medium. PLA was performed with antibodies targeting β-catenin and EP300, KAT5, or β-TrCP. FIGS. 13G and 13H contain confocal images of the negative control experiments of PLA. Cells were treated with regular (−Wnt) or Wnt3A-conditioned (+Wnt) medium. PLA was performed with the antibody targeting β-catenin and normal rabbit IgG. FIGS. 13I to 13P show quantification of FIGS. 13A to 13H. Nuclear or total PLA puncta were counted and normalized to the number of nuclei in each view. N=10 (I to N) or N=5 (O to P). Student's t-test was performed. Data are represented as mean±SD. **, p<0.01; ***, p<0.001. T1·bc339—Individual T1 and bc339 aptamers (control). 3JB8F+12—A DS aptamer (T1-linker-bc339) with a folded linker.

T3 sequence (Q09472 2-2414 limits assumed): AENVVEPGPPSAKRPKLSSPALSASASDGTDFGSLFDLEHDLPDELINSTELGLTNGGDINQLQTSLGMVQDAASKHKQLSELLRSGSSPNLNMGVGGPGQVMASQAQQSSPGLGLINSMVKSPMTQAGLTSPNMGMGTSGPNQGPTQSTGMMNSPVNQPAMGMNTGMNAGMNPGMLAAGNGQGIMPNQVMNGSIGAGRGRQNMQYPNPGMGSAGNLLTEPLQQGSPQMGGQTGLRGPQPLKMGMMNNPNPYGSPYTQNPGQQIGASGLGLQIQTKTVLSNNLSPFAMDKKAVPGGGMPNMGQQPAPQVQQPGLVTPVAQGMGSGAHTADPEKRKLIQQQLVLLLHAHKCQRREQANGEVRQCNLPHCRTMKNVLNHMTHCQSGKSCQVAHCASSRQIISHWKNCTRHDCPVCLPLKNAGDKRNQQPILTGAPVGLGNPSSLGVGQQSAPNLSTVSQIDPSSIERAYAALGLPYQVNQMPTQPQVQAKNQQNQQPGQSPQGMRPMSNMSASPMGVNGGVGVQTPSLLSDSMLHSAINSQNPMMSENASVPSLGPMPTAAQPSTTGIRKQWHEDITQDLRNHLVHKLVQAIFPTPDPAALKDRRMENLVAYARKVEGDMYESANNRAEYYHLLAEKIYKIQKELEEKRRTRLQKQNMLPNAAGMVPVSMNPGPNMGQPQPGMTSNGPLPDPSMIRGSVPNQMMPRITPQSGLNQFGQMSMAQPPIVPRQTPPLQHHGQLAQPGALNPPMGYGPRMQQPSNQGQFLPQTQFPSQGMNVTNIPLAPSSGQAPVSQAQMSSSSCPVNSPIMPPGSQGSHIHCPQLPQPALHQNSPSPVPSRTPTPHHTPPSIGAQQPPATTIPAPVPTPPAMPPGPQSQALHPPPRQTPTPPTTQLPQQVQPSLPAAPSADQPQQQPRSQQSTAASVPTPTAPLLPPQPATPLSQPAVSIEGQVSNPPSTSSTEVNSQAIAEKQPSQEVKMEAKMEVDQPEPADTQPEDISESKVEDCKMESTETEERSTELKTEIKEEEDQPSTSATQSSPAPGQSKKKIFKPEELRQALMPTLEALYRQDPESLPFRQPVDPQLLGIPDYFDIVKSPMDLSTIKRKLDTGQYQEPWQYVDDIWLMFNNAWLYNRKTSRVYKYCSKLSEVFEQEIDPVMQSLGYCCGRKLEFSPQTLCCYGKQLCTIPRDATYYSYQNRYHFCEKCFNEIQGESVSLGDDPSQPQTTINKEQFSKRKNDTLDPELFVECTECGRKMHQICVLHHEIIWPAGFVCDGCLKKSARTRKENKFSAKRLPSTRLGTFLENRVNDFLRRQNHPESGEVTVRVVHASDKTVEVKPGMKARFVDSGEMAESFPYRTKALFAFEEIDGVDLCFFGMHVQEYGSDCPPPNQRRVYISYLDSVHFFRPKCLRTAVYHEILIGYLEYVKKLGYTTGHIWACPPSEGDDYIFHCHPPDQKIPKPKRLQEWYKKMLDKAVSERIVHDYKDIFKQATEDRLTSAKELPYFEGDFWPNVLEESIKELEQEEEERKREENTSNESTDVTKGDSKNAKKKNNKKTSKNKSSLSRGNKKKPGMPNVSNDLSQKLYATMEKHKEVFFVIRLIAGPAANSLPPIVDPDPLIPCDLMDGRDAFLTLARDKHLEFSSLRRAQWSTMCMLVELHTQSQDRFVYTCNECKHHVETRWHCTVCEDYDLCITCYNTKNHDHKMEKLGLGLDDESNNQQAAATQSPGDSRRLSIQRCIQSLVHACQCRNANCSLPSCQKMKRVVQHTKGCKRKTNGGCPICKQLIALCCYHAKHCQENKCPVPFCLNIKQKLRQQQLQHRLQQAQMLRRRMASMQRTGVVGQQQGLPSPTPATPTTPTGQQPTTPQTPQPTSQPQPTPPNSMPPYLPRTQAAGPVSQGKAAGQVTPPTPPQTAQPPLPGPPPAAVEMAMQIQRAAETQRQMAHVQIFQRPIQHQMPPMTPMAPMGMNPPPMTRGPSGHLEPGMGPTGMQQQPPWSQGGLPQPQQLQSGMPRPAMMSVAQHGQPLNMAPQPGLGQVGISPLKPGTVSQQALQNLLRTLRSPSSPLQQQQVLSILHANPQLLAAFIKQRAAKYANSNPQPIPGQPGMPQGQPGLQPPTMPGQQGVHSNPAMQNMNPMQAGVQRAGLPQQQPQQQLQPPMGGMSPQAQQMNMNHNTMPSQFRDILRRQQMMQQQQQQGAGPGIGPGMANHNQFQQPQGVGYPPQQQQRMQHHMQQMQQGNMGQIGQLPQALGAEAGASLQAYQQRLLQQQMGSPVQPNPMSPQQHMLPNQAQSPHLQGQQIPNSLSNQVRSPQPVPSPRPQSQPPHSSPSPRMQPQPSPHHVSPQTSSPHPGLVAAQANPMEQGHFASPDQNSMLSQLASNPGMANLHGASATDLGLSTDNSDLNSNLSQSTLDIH
T2 sequence (Q92830 2-837 limits assumed): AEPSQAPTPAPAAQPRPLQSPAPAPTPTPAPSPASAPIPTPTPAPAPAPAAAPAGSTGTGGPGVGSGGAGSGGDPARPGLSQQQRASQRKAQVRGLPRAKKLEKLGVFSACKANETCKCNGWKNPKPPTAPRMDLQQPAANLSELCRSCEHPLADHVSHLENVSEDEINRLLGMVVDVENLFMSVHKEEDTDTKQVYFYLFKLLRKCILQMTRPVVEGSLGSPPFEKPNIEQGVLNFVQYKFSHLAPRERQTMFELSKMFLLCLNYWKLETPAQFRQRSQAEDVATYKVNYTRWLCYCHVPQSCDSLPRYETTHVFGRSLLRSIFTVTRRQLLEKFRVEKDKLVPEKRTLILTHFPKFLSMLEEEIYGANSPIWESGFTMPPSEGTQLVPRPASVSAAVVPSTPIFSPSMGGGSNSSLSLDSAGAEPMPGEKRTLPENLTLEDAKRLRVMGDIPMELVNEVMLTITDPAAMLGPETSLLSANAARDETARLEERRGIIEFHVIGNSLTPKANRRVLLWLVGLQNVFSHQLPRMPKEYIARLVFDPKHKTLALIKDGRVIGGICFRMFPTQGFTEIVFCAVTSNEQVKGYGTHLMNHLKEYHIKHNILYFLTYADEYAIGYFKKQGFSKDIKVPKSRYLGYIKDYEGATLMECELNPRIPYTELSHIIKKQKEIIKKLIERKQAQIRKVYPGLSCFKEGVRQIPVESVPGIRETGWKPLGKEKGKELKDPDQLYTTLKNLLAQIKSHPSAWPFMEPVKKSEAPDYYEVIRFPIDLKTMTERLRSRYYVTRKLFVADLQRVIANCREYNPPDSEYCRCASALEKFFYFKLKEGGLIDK

B1: bc339 with 3' A28 tail (ssRNA)
RNA: AGCUUCUGGGCGGCGAUGAGAUGACGUGUGCGGUGGUCGAGAGGUACCUUGGGUGAGGGAAGGGAAGGGAGGUUGACCACUGCGUGACUGCCCAGAAGCU
- Kd (β-catenin): 16 nM

B2: T1 with 3' A28 tail (ssRNA)
RNA: GGGAGAAUCACUUACGGAUCCUCGUUAAGUGGCUCUCAGUCGCCCGUAACUCCGAUGCCGAUGCAGCGGCGACAACUGCACCCAAGGCUCGGAAGCUU
- Kd [1]: 60.5 nM

B3: T1 (ssRNA)
RNA: GGGAGAAUCACUUACGGAUCCUCGUUAAGUGGCUCUCAGUCGCCCGUAACUCCGAUGCCGAUGCAGCGGCGACAACUGCACCCAAGGCUCGGAAGCUU
- Kd [2]: ~60 nM

- binding result (KAT2A (GCN5)): binds
- binding result (EP300): binds
B4: β-catenin (endogenous, in HEK293T cells) (other, UniProt P35222 2-781, looked up)
chain: ATQADLMELDMAMEPDRKAAVSHWQQQSYLDSGIHSGATTTAPSLSGKGNPEEEDVDTSQVLYEWEQGFSQSFTQEQVADIDGQYAMTRAQRVRAAMFPETLDEGMQIPSTQFDAAHPTNVQRLAEPSQMLKHAVVNLINYQDDAELATRAIPELTKLLNDEDQVVVNKAAVMVHQLSKKEASRHAIMRSPQMVSAIVRTMQNTNDVETARCTAGTLHNLSHHREGLLAIFKSGGIPALVKMLGSPVDSVLFYAITTLHNLLLHQEGAKMAVRLAGGLQKMVALLNKTNVKFLAITTDCLQILAYGNQESKLIILASGGPQALVNIMRTYTYEKLLWTTSRVLKVLSVCSSNKPAIVEAGGMQALGLHLTDPSQRLVQNCLWTLRNLSDAATKQEGMEGLLGTLVQLLGSDDINVVTCAAGILSNLTCNNYKNKMMVCQVGGIEALVRTVLRAGDREDITEPAICALRHLTSRHQEAEMAQNAVRLHYGLPVVVKLLHPPSHWPLIKATVGLIRNLALCPANHAPLREQGAIPRLVQLLVRAHQDTQRRTSMGGTQQQFVEGVRMEEIVEGCTGALHILARDVHNRIVIRGLNTIPLFVQLLYSPIENIQRVAAGVLCELAQDKEAAEAIEAEGATAPLTELLHSRNEGVATYAAAVLFRMSEDKPQDYKKRLSVELTSSLFRTEPMAWNETADLGLDIGAQGEPLGYRQDDPSYRSFHSGGYGQDALGMDPMMEHEMGGHHPGADYPVDGLPDLGHAQDLMDGLPPGDSNQLAWFDTDL
modifications: O-GlcNAc at varying levels (raised by the DS aptamer 3JB8F+12); sites not fully mapped
notes: Endogenous protein detected in fixed cells (PLA) or cell lysate (Co-IP) with an anti-β-catenin antibody; HEK293T is a human cell line; also called endogenous β-catenin
